The values that follow come from US20140274782A1, “AFFINITY REAGENTS AND METHODS FOR DETECTION, PURIFICATION, AND PROTEOMIC ANALYSIS OF METHYLATED PROTEINS” (The Board of Trustees of the Leland Stanford Junior …, priority 2013, published 2014).

One assay deals with T1, G9a and GLP (Homo sapiens, UniProt Q96KQ7+Q9H9B1).
T1 construct: endogenous in cells; host or cells: HEK 293T
T1 sequence (Q96KQ7 2-1210 limits assumed): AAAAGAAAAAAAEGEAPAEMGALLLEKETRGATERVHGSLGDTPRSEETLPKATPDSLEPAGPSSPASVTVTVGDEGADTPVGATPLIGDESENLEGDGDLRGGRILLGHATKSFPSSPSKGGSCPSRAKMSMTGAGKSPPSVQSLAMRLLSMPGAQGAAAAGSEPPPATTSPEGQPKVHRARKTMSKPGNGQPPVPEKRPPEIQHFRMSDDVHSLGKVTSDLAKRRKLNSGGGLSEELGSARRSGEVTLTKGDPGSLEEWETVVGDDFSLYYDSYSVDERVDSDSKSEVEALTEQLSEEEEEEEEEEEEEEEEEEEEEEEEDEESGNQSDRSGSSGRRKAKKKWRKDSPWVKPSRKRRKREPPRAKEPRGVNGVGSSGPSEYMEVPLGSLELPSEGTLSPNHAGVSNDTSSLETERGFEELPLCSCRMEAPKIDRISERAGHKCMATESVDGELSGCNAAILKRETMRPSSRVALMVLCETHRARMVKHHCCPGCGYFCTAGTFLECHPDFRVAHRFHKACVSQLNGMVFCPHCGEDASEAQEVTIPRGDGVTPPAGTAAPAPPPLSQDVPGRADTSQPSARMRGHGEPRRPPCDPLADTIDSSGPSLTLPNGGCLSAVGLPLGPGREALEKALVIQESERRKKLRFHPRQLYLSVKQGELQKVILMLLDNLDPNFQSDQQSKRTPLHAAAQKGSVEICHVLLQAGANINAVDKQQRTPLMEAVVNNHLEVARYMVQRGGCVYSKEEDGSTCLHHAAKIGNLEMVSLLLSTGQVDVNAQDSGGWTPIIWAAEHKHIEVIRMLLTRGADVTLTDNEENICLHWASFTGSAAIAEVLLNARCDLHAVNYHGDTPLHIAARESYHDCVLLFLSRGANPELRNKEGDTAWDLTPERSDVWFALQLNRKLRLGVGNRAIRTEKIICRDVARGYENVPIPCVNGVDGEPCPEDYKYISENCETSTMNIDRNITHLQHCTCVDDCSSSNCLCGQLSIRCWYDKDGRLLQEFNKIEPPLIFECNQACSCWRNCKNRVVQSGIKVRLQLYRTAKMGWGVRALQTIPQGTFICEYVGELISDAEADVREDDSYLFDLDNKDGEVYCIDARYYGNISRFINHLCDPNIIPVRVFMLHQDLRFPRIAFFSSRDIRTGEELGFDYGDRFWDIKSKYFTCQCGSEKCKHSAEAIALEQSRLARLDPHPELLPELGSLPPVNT
T1 sequence (Q9H9B1 2-1298 limits assumed): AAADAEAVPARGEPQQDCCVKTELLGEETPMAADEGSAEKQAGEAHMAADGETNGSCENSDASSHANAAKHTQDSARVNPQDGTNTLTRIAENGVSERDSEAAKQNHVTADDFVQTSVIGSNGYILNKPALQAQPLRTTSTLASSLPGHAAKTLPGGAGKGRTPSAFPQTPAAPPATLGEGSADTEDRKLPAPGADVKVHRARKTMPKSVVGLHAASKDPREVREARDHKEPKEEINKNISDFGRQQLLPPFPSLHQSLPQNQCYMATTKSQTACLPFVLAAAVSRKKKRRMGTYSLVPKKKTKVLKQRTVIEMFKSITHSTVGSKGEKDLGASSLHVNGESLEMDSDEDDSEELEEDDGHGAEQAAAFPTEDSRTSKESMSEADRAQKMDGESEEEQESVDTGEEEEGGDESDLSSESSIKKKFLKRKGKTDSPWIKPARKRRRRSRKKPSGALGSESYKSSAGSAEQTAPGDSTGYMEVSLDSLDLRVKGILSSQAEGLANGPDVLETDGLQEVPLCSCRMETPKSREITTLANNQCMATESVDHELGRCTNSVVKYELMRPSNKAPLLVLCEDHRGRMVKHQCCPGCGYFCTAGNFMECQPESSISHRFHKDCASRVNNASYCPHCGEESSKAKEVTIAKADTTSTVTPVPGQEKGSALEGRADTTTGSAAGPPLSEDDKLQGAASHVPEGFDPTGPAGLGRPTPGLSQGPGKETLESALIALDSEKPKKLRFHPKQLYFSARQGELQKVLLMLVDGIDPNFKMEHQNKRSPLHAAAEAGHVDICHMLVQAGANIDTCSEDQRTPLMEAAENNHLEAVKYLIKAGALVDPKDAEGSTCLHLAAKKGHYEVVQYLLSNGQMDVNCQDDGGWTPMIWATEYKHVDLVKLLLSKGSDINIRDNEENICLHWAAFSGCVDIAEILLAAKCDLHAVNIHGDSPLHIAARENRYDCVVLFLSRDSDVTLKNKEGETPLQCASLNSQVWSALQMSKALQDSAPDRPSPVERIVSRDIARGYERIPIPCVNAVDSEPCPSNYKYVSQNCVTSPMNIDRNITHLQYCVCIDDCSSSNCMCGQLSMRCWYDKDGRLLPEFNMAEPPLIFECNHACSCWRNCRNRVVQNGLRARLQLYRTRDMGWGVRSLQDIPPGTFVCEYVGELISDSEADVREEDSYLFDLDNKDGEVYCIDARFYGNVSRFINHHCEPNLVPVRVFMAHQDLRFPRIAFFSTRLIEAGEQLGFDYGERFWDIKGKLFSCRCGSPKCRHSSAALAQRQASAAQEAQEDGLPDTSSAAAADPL
In words: Triple SILAC pull-down after UNC0638 treatment of 293T cells, DMSO/UNC0638 ratio of protein captured by 3×MBT.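 On all read-outs here: mass spectrometry (Q-Exactive) SILAC quantitation, DMSO/UNC0638 ratio computed after subtracting 3×MBTD355N mutant pull-down background, only proteins with at least twofold 3×MBT over mutant signal considered.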 It counts as cell-based. To be noted: for Relative to UNC0638 UNC Heavy / Relative to UNC0638 UNC Light: SILAC ratio DMSO/UNC0638 of protein pulled down with 3xMBT; for Relative to UNC0638 UNC Heavy: UNC0638 in heavy SILAC media; for Relative to UNC0638 UNC Light: UNC0638 in light SILAC media; for Relative to UNC0638 Average: average of UNC Light and UNC Heavy experiments.

In a further assay the test system is 3×MBT domain of L3MBTL1. In words: Triple SILAC pull-down, 3xMBT/3xMBTD355N ratio (cytoplasmic, nuclear and chromatin fractions of 293T cells).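 On all read-outs here: proteins quantified with MaxQuant, requiring at least two unique peptides and quantification in both label directions, normalized to the mean of proteins from a digested loading control.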 The note with it: SILAC ratio, pull-down 3xMBT vs 3xMBTD355N; for 3xMBT/D355N UNC Heavy: experiment with UNC0638 in heavy SILAC media; for 3xMBT/D355N UNC Light: experiment with UNC0638 in light SILAC media. It counts as binding, human.

With USP10, in the assay with G9a and GLP, the “Relative to UNC0638 UNC Heavy” value came out at 0.57 log base 2, the “Relative to UNC0638 UNC Light” value was −0.05 log base 2 and the “Relative to UNC0638 Average” value is 0.26 log base 2. Besides, in the assay on 3×MBT domain of L3MBTL1, the “3xMBT/D355N UNC Heavy” value turned out to be 2.00 log base 2 and the “3xMBT/D355N UNC Light” value was 2.13 log base 2.

Turning to VRK1, in the assay with G9a and GLP, the “Relative to UNC0638 UNC Heavy” value is 0.21 log base 2, the “Relative to UNC0638 UNC Light” value amounted to 0.03 log base 2 and the “Relative to UNC0638 Average” value turned out to be 0.12 log base 2. Further, in the assay with 3×MBT domain of L3MBTL1, the “3xMBT/D355N UNC Heavy” value was found to be 2.10 log base 2 and the “3xMBT/D355N UNC Light” value turned out to be 2.56 log base 2.

Take XRCC5: in the assay with G9a and GLP, the “Relative to UNC0638 UNC Heavy” value worked out at 0.14 log base 2, the “Relative to UNC0638 UNC Light” value stood at 0.17 log base 2 and the “Relative to UNC0638 Average” value is on record as 0.15 log base 2. In addition, in the assay on 3×MBT domain of L3MBTL1, the “3xMBT/D355N UNC Heavy” value was determined as 2.15 log base 2 and the “3xMBT/D355N UNC Light” value was 2.80 log base 2.

YWHAE: in the assay with G9a and GLP, the “Relative to UNC0638 UNC Heavy” value is 0.58 log base 2, the “Relative to UNC0638 UNC Light” value was −0.12 log base 2 and the “Relative to UNC0638 Average” value came to 0.23 log base 2. Moreover, in the assay on 3×MBT domain of L3MBTL1, the “3xMBT/D355N UNC Heavy” value amounted to 1.86 log base 2 and the “3xMBT/D355N UNC Light” value came out at 2.52 log base 2.

Take ZFR: in the assay with G9a and GLP, the “Relative to UNC0638 UNC Heavy” value was 0.09 log base 2, the “Relative to UNC0638 UNC Light” value was determined as 0.13 log base 2 and the “Relative to UNC0638 Average” value was 0.11 log base 2. Also, in the assay on 3×MBT domain of L3MBTL1, the “3xMBT/D355N UNC Heavy” value came to 2.89 log base 2 and the “3xMBT/D355N UNC Light” value is given as 3.14 log base 2.

ZNF207: in the assay with G9a and GLP, the “Relative to UNC0638 UNC Heavy” value was 0.34 log base 2, the “Relative to UNC0638 UNC Light” value is 0.09 log base 2 and the “Relative to UNC0638 Average” value came out at 0.21 log base 2. For the same substance, in the assay with 3×MBT domain of L3MBTL1, the “3xMBT/D355N UNC Heavy” value is listed as 2.48 log base 2 and the “3xMBT/D355N UNC Light” value was 3.12 log base 2.
